The source of these data is publication PMC10279719 (Nature Communications, 2023).

Common to all, as to assay: SPR; biotinylated PEAK proteins (with or without Src phosphorylation) captured with a biotin CAPture kit, CrkII NSH3 as analyte; Biacore 8K+, 20 °C, HBS-TP (150 mM NaCl); 1 M NaCl regeneration; steady state
Holding throughout (conditions): both partners purified
On the technique in general: SPR reads the build-up and loss of mass on a sensor chip optically.

For experiment [1], the target named is T1, PEAK1^IDR1 (residues 1082-1746), from insect cells (human, UniProt Q9H792 1082-1746, biotin (EZ-Link NHS-PEG4-Biotin, 1:1 molar ratio)).
T1 construct: human PEAK1, UniProt Q9H792, residues 1082-1746; Purifies as a homodimer; Phosphorylation at the tandem 14-3-3 motif was not observed
T1 sequence (looked up): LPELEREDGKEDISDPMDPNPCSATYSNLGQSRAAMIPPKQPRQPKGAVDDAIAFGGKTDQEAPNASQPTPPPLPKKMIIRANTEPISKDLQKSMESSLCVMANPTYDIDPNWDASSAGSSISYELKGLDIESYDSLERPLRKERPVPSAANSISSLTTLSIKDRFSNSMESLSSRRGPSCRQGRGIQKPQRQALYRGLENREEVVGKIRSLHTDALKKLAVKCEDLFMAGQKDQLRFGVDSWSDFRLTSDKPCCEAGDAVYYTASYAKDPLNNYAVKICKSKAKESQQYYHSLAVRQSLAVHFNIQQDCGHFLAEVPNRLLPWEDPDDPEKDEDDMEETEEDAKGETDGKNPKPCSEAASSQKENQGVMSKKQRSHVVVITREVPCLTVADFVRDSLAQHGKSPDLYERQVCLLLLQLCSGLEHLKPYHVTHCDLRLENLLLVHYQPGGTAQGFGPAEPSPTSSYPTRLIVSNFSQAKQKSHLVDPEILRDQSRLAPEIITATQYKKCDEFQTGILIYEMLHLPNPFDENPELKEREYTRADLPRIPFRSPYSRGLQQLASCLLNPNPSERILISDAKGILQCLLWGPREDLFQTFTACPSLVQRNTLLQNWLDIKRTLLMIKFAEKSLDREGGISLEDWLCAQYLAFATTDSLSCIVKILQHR

Experiment [2] deals with T2, PEAK1^IDR1 (residues 1082-1746), from insect cells, phosphorylated by Src (human, UniProt Q9H792 1082-1746, phosphotyrosine at Y1107 (by Src in vitro, shown by MS/MS); other Src sites not stated; biotin (EZ-Link NHS-PEG4-Biotin, 1:1 molar ratio)).
T2 construct: human PEAK1, UniProt Q9H792, residues 1082-1746; also called PEAK1-IDR1 (+ Src phosphorylation); source: Sf21 insect cells, purified; phosphorylated in vitro with recombinant Src kinase domain
T2 sequence (looked up): T1 sequence (looked up)

Experiment [3] addresses T3, full length PEAK3 (PEAK3^FL, residues 1-473), from insect cells (human, UniProt Q6ZS72 1-473, phosphoserine at S69; biotin (EZ-Link NHS-PEG4-Biotin, 1:1 molar ratio)).
T3 construct: Immobilised as the complex with insect cell 14-3-3ε,ζ
T3 sequence (looked up): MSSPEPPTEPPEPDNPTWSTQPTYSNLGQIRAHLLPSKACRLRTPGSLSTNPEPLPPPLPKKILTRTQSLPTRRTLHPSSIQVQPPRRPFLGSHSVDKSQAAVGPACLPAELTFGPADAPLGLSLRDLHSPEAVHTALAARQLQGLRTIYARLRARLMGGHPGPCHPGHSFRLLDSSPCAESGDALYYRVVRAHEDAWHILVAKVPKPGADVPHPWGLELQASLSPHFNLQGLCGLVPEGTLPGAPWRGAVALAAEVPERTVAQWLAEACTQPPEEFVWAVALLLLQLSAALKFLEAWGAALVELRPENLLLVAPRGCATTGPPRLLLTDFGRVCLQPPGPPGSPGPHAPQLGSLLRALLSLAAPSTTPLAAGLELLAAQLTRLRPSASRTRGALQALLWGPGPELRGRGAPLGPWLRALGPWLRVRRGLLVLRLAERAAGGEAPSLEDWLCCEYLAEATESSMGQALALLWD

The target in experiment [4] is T4, full length PEAK3 (PEAK3^FL, residues 1-473), from insect cells, phosphorylated by Src (human, UniProt Q6ZS72 1-473, phosphoserine at S69; phosphotyrosine at Y24 (by Src in vitro, shown by MS/MS); other Src sites not stated; biotin (EZ-Link NHS-PEG4-Biotin, 1:1 molar ratio)).
T4 construct: As Sm27, with Src phosphorylation before immobilisation; also called PEAK3-FL (+ Src phosphorylation); source: Sf21 insect cells, purified as a complex with insect 14-3-3ε,ζ; phosphorylated in vitro with recombinant Src kinase domain
T4 sequence (looked up): T3 sequence (looked up)

Experiment [5] concerns the target T5, full length PEAK3 (PEAK3^FL, residues 1-473), from E. coli (human, UniProt Q6ZS72 1-473, biotin (EZ-Link NHS-PEG4-Biotin, 1:1 molar ratio)).
T5 construct: also called PEAK3-FL E.coli; source: E. coli C41 (DE3), purified (two-step purification)
T5 sequence (looked up): T3 sequence (looked up)

B1: CrkII N-terminal SH3 domain (CrkII^NSH3, residues 134-191) (domain or fragment, human, UniProt P46108-1 134-191, looked up)
chain: AEYVRALFDFNGNDEEDLPFKKGDILRIRDKPEEQWWNAEDSEGKRGMIPVPYVEKYR
notes: human CrkII NSH3 domain, UniProt P46108-1, residues 134-191; Amine coupled to a CM5 chip in a2; analyte in a4; in the syringe in ITC
The term Kd denotes the equilibrium constant for the complex coming apart. On to B1, for which the Kd in experiment [1] was 3.7 µM; in experiment [2], 4.11 µM; in experiment [3], 3.87 µM; in experiment [4], 6.84 µM; in experiment [5] it was 9.6 µM.
